Paper PMC9247205

Biological target: GST-SF1KQ (EhSF1 KH-QUA2 domain) (Entamoeba histolytica) (UniProt C4M4V3)
Assay: EMSA
Conditions: EMSA: 50 ug protein (Fig 4), 200 fmol probe, 20 min (+10 min with U2 snRNA); binding buffer as in Ortuno-Pineda 2012, not given; UV crosslinking at pH 7.6 or …

Sequence: AACUUUUAUUU [E. histolytica RabX13 intron BS probe (P+)]
- binding signal: 50%

Sequence: UAUACUAACAA [yeast canonical BS probe (C+)]
- binding signal: 50%
